Source: patent US20210198347A1 (Chugai, published 2021)

T1: Native proenzyme human C1s (Comptech A103) (human, UniProt P09871 16-688)
T1 construct: mature; Bought native protein; also called native human C1s Proenzyme; native human C1s proenzyme protein (CompTech)
T1 sequence (looked up): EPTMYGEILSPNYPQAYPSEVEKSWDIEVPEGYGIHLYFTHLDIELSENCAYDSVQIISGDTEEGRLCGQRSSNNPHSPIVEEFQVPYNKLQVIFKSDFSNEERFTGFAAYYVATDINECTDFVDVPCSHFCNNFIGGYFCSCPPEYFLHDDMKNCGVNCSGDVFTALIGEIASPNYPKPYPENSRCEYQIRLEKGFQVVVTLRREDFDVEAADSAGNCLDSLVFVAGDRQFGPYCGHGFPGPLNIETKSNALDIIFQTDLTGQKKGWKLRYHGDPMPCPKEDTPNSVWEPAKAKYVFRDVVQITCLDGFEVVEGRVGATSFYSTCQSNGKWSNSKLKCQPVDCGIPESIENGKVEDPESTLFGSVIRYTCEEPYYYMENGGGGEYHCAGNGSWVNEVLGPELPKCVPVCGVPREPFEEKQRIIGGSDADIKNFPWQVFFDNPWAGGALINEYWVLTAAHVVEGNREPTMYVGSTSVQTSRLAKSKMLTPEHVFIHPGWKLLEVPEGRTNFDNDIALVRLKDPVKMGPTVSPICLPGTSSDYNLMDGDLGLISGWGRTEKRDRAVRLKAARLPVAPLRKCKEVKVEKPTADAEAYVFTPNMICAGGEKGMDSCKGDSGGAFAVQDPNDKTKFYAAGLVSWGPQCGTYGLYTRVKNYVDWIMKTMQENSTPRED

T2: recombinant human C1s CCP1-CCP2-SP-His (human, UniProt P09871 292-688)
T2 construct: Truncated protein lacking the CUB1-EGF-CUB2 domain; also called human C1s CCP1-CCP2-SP M292-D688
T2 sequence: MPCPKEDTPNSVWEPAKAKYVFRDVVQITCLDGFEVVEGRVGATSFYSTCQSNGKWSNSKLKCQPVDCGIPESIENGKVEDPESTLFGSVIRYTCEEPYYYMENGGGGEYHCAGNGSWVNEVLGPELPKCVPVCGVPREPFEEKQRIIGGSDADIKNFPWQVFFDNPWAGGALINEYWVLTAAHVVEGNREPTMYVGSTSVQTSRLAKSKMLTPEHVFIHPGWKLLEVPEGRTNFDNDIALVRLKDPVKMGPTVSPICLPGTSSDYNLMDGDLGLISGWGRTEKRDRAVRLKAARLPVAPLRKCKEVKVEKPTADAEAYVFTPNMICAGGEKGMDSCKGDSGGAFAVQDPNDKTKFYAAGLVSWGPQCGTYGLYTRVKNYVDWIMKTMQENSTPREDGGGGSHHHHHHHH

T3: Native human C1r enzyme (Comptech A102) (human, UniProt P00736 18-705)
T3 construct: mature
T3 sequence (looked up): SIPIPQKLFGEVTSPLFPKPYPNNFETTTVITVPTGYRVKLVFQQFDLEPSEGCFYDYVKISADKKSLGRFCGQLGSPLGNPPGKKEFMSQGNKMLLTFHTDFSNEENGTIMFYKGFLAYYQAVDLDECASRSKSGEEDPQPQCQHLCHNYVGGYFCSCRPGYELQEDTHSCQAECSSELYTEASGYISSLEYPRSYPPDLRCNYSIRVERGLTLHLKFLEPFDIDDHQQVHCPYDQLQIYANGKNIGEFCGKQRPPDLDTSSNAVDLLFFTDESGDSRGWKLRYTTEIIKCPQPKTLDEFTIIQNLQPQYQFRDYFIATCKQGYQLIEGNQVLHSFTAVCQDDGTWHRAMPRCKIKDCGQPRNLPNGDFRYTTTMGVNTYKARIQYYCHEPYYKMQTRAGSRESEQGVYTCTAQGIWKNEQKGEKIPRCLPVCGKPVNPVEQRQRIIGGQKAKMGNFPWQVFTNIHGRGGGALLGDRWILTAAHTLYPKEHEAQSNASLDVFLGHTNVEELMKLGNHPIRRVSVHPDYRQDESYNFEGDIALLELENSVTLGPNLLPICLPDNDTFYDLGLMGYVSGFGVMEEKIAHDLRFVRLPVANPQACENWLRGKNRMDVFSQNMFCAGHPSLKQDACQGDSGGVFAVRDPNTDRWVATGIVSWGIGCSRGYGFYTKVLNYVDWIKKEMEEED


Columns and labels:
[1] = molecular target: T1, Native proenzyme human C1s (Comptech …); experiment: SPR (BIACORE T200, 37 degrees C, pH 7.4), antibody captured by protein A/G, C1s 50 nM
Procedure: The binding specificities of the six C1s CUB1-EGF-CUB2 binders were determined at 37 degrees C. using BIACORE® T200 instrument (GE Healthcare). Recombinant Protein A/G (Pierce) was immobilized onto all flow cells of a CM4 sensor chip using an amine coupling kit (GE Healthcare). Antibodies and analytes were prepared in 7(+) buffer (20 mM ACES, 150 mM NaCl, 1.2 mM CaCl₂, 0.05% Tween 20, 0.005% NaN₃, pH 7.4). Each antibody was captured onto the sensor surface by protein A/G. Antibody capture levels were aimed at 100 resonance unit (RU). Native proenzyme human C1s (Comptech A103) (at 50 nM as a monomer) or recombinant human C1s CCP1-CCP2-SP-His (at 100 nM as a monomer) was injected, followed by dissociation. Sensor surface was regenerated each cycle with 10 mM Glycine-HCl pH 1.5. The six C1s CUB1-EGF-CUB2 binders bound to the native proenzyme human C1s, but not recombinant human C1s CCP1-CCP2-SP-His, which is a truncated protein lacking the CUB1-EGF-CUB2 domain.

[2] = molecular target: T2, recombinant human C1s CCP1-CCP2-SP-His; experiment: SPR (BIACORE T200, 37 degrees C, pH 7.4, 1.2 mM CaCl2), antibody captured by protein A/G
[3] = molecular target: T3, Native human C1r enzyme (Comptech A102); experiment: SPR (BIACORE T200, 37 degrees C, pH 7.4), antibody captured by protein A/G, C1r 25 nM as a dimer
Procedure: The binding specificities of human C1r CUB1-EGF-CUB2 binders are determined at 37 degrees C. using BIACORE® T200 instrument (GE Healthcare). Recombinant Protein A/G (Pierce) is immobilized onto all flow cells of a CM4 sensor chip using an amine coupling kit (GE Healthcare). Antibodies and analytes are prepared in 7(+) buffer (20 mM ACES, 150 mM NaCl, 1.2 mM CaCl₂, 0.05% Tween 20, 1 mg/mL BSA (IgG-free), 1 mg/mL CMD, 0.005% NaN₃, pH 7.4). Each antibody is captured onto the sensor surface by protein A/G. Antibody capture levels are aimed at 100 resonance unit (RU). Native human C1r enzyme (Comptech A102) (at 25 nM as a dimer) or recombinant human C1r CCP1-CCP2-SP-FLAG (at 50 nM as a monomer) is injected, followed by dissociation. Sensor surface is regenerated each cycle with 10 mM Glycine-HCl pH 1.5. It may be determined that C1r CUB1-EGF-CUB2 binders bound to the native human C1r enzyme , but not recombinant human C1r CCP1-CCP2-SP-FLAG, which is a truncated protein lacking the CUB1-EGF-CUB2 domain of C1r.

Row | Binder | binding result [1] | binding result [2] | binding result [3]
1 | COS0499ee-SG1148 (antibody, human IgG1, kappa, V domains shown, also called COS499; COS499ee(-SG1148)) VH: QSLEESGGRLVTPGTPLTLTCTASGFSLSNYNMAWVRQAPGKGLEWIGIIETTTNTYYARWARGRFTISKTSSTTVDLQIASPTTEDTATYFCGRRVSNSHDLWGPGTLVTVSS VL: AYDMTQTPASVSAAVGGTVTINCQASQTIGGWCAWYQQKPGQPPKLLIYKASTLASGVSSRFKGSGSGTEFALTISDLECDDAATYYCQHGYYTSSTIENTFGGGTKVEIKR | binds | no binding (tested: 100 nM) | 
2 | COR0058bb-SG1148 (antibody, human IgG1, kappa, V domains shown, Anti-C1r antibody) VH: QSVEESGGRLVTPGTPLTLTCTASGFDISNYNMQWVRQSPGKGLEWIGIIWSGGYTDYANWAKGRFTISATSTTVDLKSTSPTTEDTATYFCARQGANFGDYTVDLWGPGTLVTVSS VL: AYDMTQTPASVEVAVGGTVTIKCQASQSIRSSLAWYQQKPGQRPKLLIYRASTLASGVSSRFKGSGSGTQFTLTISGVECADAATYYCQQGYSNINVDNTFGGGTKVEIKR |  |  | binds
3 | COR0205gg-SG1148 (antibody, human IgG1, kappa, V domains shown, Anti-C1r antibody; also called COR205gg(-SG1148)) VH: QSLEESGGGLFKPTDTLTLTCTVSGFSLSSNAMSWVRQAPGKGLEYIGIIYLTGVTYYATWAKGRFTISKTSTTVDLKITSPTTEDTATYFCAGGEFSLWGPGTLVTVSS VL: DIIMTQTPASVEAAVGGTVTIKCQASQGIDNYFSWHQQKPGQPPKLLIYKASTLASGVSSRFKGSGSGTEFTLTISDLECDDAATYYCQCTYGYNINDNYGNAFGGGTKVEIKR |  |  | binds
4 | COR0208cc-SG1148 (antibody, human IgG1, kappa, V domains shown, Anti-C1r antibody; also called COR208; COR208cc(-SG1148)) VH: QSVEESGGRLVTPGTPLTLTCTVSGFSLSNYYMNWVRQAPGKGLEWIGIIASDDNTWYASWAKGRFTISKTSTTVDLKITSPTTEDTATYFCARDLDVGYGSGWYDLWGQGTLVTVSS VL: AAVLTQTPSPVSVAVGGTVTINCQASQSVYNNNYLAWYQQEPGHRPKLLIYRASKLASGVPSRFSGSGSGTQFTLTISGVQCDDAATYYCLGGYDDFTDTTFGGGTKVEIKR |  |  | binds
5 | COR0067ff-SG1148 (antibody, human IgG1, kappa, V domains shown, Anti-C1r antibody) VH: QSLEESGGGLVQPEGSLTLTCKASGIDFSSNAMCWVRQAPGKGLEWIGCIYTGSTTIWYASWAKGRFTISKTSSTTVTLQLNSLTVADTATYFCARRDSSSGYAFKLWGPGTLVTVSS VL: DIVMTQTPSSVSAAVGGTVTIKCQASENIYSNLAWYQQKSGQPPNLLIYGASTLESGVPSRFKGSGSGTEFTLTISDLECADAAIYYCQCTYDDSSTFGGGTKVEIKR |  |  | binds
6 | COR0338gg-SG1148 (antibody, human IgG1, kappa, V domains shown, Anti-C1r antibody) VH: QSLEESGGGLVQPEGSLTLTCKASGIDFSSNAMCWVRQAPGKGLEWIACIYTGSTTIWYATWAKGRFTISKTSSTTVTLQLNSLTVADTATYFCARRASSSGYAFKLWGPGTLVTVSS VL: DVVMTQTPFSVSAAVGGTVTIKCQASESIYSNLAWYQQKPGQPPNLLIYGASTLESGVPSRFKGSGSGTEFTLTISDLECDDAAIYYCQCTYDDSSTFGGGTKVEIKR |  |  | binds

Second part, the binder after the results:

Row | binding result [1] | binding result [2] | binding result [3] | Binder
7 |  |  | binds | COR0011bb-SG1148 (antibody, human IgG1, kappa, V domains shown, Anti-C1r antibody) VH: QSLEESGGRLVTPGTPLTLTCTASGFTFSGYYMCWVRQTPGKGLEYIGIIASSGNTYYANWAKGRFTISKTSSTTVDLKMTSLTTEDTATYFCAKPESDYVNGMGLWGPGTLVTVSS VL: DIVMTQTPASVSDPVGGTVTIKCQASQSIYNLLSWYQQKPGQRPKLLIYDASKLASGVPSRFKGSGYGTDFTLTISDLGCADAATYYCQSNYGYSRTDDTFFYGFGGGTKVEIKR
8 | binds | no binding (tested: 100 nM) |  | COS0448oo-SG1148 (antibody, human IgG1, kappa, V domains shown, Rabbit B-cell derived variable regions; also called COS448; COS44800(-SG1148)) VH: QSVEESGGRLVTPGTPLTLTCTVSGFSLSNYGMIWVRQAPGEGLEYIGFVSGSGSAYYANWVKGRFTISKTSTTVDLKMTSLTTEDTATYFCARGAYNTDSYSYSLYYGMDLWGPGTLVTVSS VL: QIVMTQTPASVEVAVGGTVTIKCQASQSIYSYLSWYQQKPGQPPKLLIYGASTLASGVPSRFKGSRSGTEFTLTISDLECADAATYYCQSNYATTTTYGTFGGGTKVEIKR
9 | binds | no binding (tested: 100 nM) |  | COS0547gg-SG1148 (antibody, human IgG1, kappa, V domains shown) VH: QSLEESGGRLVTPGTPLTLTCTASGFSLSSYHMDWVRQAPGKGLEWIGIITYTGDTYYATWAKGRFTISKTSSTTVDLKMASLTTEDTATYFCARRQYDAYNVWGPGTLVTVSS VL: AYDMTQTPASVEVAVGGTVTIKCQASQSINNYLAWYQQKPGQPPKLLIYYASTLASGVPSRFKGSRSGTEFTLTISGVECADAATYYCQHGYYTSSNIDSVFGGGTKVEIKR
10 |  |  | binds | COR0212bb-SG1148 (antibody, human IgG1, kappa, V domains shown, Anti-C1r antibody) VH: QEQLKESGGGLVTPGGTLTLTCTASGFSLSSYDMSWVRQAPGKGLDWIGIINTGGSAYYATWAKGRFTISKTSTTVDLKITSPTTEDTATYFCGRKINDAFDPWGPGTLVTVSS VL: AQVLTQTPFSVSAAVGGTVTINCQASESISSNLAWYQQKPGQPPKLLIYDASDLASGVPSRFKGSGSGKQFTLTISGVQCDDAATYFCQHGWIYDTIDSNCFGGGTKVEIKR
11 |  |  | binds | COR0278bb-SG1148 (antibody, human IgG1, kappa, V domains shown, Anti-C1r antibody) VH: QSLEESGGRLVTPGTPLTLTCTASGFSLSSYDMTWVRQAPGKGLEWIGIIYTLGSAYYASWAKGRFTISRTSTTVDLKMTSPTTEDTATYFCARGGDSYGAVDTAFDLWGPGTLVTVSS VL: AQVLTQTPSPVSAAVGGTVTISCQSSPSVYSNYLSWYQQKPGQPPKLLIYRASRLASGVPSRFKGSGSGTQFTLTISEVQCDDAATYYCQGYFGNGINAFGGGTKVEIKR
